# Data published in US20220348635A1, “COMPOSITIONS AND METHODS FOR NEUROLOGICAL DISEASES” (Coda Biotherapeutics, Inc., priority 2019, published 2022).
# B1: Y115D, L131Q in SEQ ID NO: 33: CR-11 (Chemogenic receptor-11): SEQ ID NO: 33 with substitutions Y115D and L131Q (protein)
# chain: MRCSPGGVWLALAASLLHVSLQGEFQRKLYKELVKNYNPLERPVANDSQPLTVYFSLSLLQIMDVDEKNQVLTTNIWLQMSWTDHYLQWNVSEYPGVKTVRFPDGQIWKPDILLDNSADERFDATFHTNVQVNSSGHCQYLPPGIFKSSCPMDLKNFPMDVQTCKLKFGSWSYGGWSLDLQMQEADISGYIPNGEWDLVGIPGKRSERFYECCKEPYPDVTFTVTMRRRMGYYLIQMYIPSLLIVILSWISFWINMDAAPARVGLGITTVLTMTTQSSGSRASLPKVSYVKAIDIWMAVCLLFVFSALLEYAAVNFVSRQHKELLRFRRKRRHHKSPMLNLFQEDEAGEGRFNFSAYGMGPACLQAKDGISVKGANNSNTTNPPPAPSKSPEEMRKLFIQRAKKIDKISRIGFPMAFLIFNMFYWIIYKIVRREDVHNQ
# modifications: synthetic sequence of chimeric LGIC
# Tests used:
# Type in all cases: cell-based
# [1] = YFP quench plate reader assay, response to ABT-126; settings: LX293T YFP reporter cells
# Outline: (§1)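 LX293T cells stably expressing an anion-quenched YFP reporter were transiently transfected with DNA for double-substitution mutants of chimeric LGIC SEQ ID NO:33. Ligand, prepared at 2× in NaI-based ECS (pH 7.2), was added after a 17 sec baseline, and YFP quench was read over 2 min on a Flexstation3.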
# [2] = YFP quench plate reader assay, response to AZD-0328; settings: LX293T YFP reporter cells
# Outline: as §1
# [3] = YFP quench plate reader assay, response to RG3487; settings: LX293T YFP reporter cells
# Outline: as §1
# [4] = YFP quench plate reader assay, response to TC-6987; settings: LX293T YFP reporter cells
# Outline: as §1
# [5] = Manual patch clamp, HEK cell line, Facinicline/RG3487; settings: HEK293 cells and cultured rat DRG sensory neurons
# Protocol: (§2) FIG. 2A-FIG. 2B show the concentration-response curves of CR-11 (Chemogenic receptor-11, an engineered receptor comprising an amino acid sequence having the amino acid substitutions of Y115D and L131Q in SEQ ID NO: 33) expressed in HEK 293 cells to acetylcholine as well as to non-native ligands RG-3487 (SA-2, Synthetic Agonist-2). The responses were evaluated using manual patch clamp electrophysiology. Currents were normalized to unity for the maximal response. The continuous line through the data points is the best fit obtained with the Hill equation, and EC50s for each ligand are estimated from the concentration-response curves.
# (§3) Using whole cell manual patch clamp electrophysiology in HEK293 cells and rat DRG neurons, the EC50 of the various engineered receptors disclosed herein to Ach and non-native ligands was measured. The rheobase shift was also measured in rat DRG neurons, which reflects the efficacy of the receptors. To calculate the rheobase, first, the amount of current that can produce an action potential was determined. Then the ligand was added, followed by a step wise increase in the current injected up to 700 pA. […] The EC50 was calculated using the Hill equation with peak current measurements from escalating doses of ligand.
# [6] = Manual patch clamp, HEK cell line, acetylcholine; settings: HEK293 cells and cultured rat DRG sensory neurons
# Protocol: as §2, §3
# [7] = Evoked action potentials in transduced rat DRG neurons, RG-3487; settings: RG-3487 (SA-2) at 3 μM
# Protocol: Using whole cell manual patch clamp electrophysiology in HEK293 cells and rat DRG neurons, the EC50 of the various engineered receptors disclosed herein to Ach and non-native ligands was measured. The rheobase shift was also measured in rat DRG neurons, which reflects the efficacy of the receptors. To calculate the rheobase, first, the amount of current that can produce an action potential was determined. Then the ligand was added, followed by a step wise increase in the current injected up to 700 pA. The current injected after addition of the ligand was divided by, the original current injected to obtain an action potential, to calculate the rheobase. The EC50 was calculated using the Hill equation with peak current measurements from escalating doses of ligand.
# (§4) Acetylcholine at 3.0 mM had no effect on evoked action potentials in transduced neurons (n=4) (FIG. 4B).
# [8] = Evoked action potentials in transduced rat DRG neurons, acetylcholine; settings: Acetylcholine at 3.0 mM, n=4
# Protocol: as §4
molecule,measurement,setting,value
B1,"percent quench of YFP fluorescence, 50 nM abt",[1]; 50 nM ABT-126,−1.81%
same,"percent quench of YFP fluorescence, 100 nM abt",[1]; 100 nM ABT-126,−2.61%
same,"percent quench of YFP fluorescence, 300 nM abt",[1]; 300 nM ABT-126,−3.78%
same,"percent quench of YFP fluorescence, 1 uM abt",[1]; 1 uM ABT-126,−2.6%
same,"percent quench of YFP fluorescence, 100 nM azd",[2]; 100 nM AZD-0328,12.15%
same,"percent quench of YFP fluorescence, 300 nM azd",[2]; 300 nM AZD-0328,30.92%
same,"percent quench of YFP fluorescence, 30 uM azd",[2]; 30 uM AZD-0328,68.65%
same,"percent quench of YFP fluorescence, 30 nM fac",[3]; 30 nM RG3487,41.32%
same,"percent quench of YFP fluorescence, 100 nM fac",[3]; 100 nM RG3487,59.51%
same,"percent quench of YFP fluorescence, 300 nM fac",[3]; 300 nM RG3487,74.86%
same,"percent quench of YFP fluorescence, 10 uM fac",[3]; 10 uM RG3487,78.53%
same,"percent quench of YFP fluorescence, 30 uM fac",[3]; 30 uM RG3487,84.45%
same,"percent quench of YFP fluorescence, 1 uM tc6",[4]; 1 uM TC-6987,38.83%
same,"percent quench of YFP fluorescence, 10 uM tc6",[4]; 10 uM TC-6987,31.59%
same,"percent quench of YFP fluorescence, 500 uM tc6",[4]; 500 uM TC-6987,29.83%
same,sensitivity to RG-3487 compared to wildtype nAchRa7 receptor,[5],more sensitive
same,sensitivity / potency to acetylcholine,[6],essentially insensitive
same,effect on current injection evoked action potentials,[7],reversibly inhibits
same,increase in the current required to elicit action potentials,[7]; n=7,~3 ×
same,effect on evoked action potentials,[8],no effect
